Test results from patent publication US20170355757A1 (Regeneron, published 2017).

B1: H4H12166P6 (antibody, human IgG4, V domains shown)
VH: QVQLQESGPGLVKPSETLSLTCTVSGDSVSSSYWTWIRQPPGKGLEWIGYIYYSGSSNYNPSLKSRATISVDTSKNQFSLKLSSVTAADTAVYYCAREGNVDHTMIFDYWGQGTLVTVSS
VL: AIQMTQSPSSLSASVGDRVTITCRASQGIRNDLGWYQQKPGKAPKLLIYAASSLQSGVPSRFAGRGSGTDFTLTISSLQPEDFATYYCLQDFNYPWTFGQGTKVEIK
notes: human IgG4 Fc with S108P hinge mutation
B2: H4H11686N (antibody, human IgG4, V domains shown)
VH: QVQLVESGGGLVKPGGSLRLSCAASGFTFSDYYMSWIRQAPGKGLEWVSYISSSGNTIKYADSMKGRFTISRDNAKKSLFVEMNSLRAEDTAVYYCARYKSSSDYFDHWGQGTLVTVSS
VL: EIVLTQSPATLSLSPGERATLSCRASQSVRSYLAWYQQKPGQAPRLLIYDASNRATAIPARFSGSGSGTDFTLTISSLEPEDLAVYYCQQSGNWPLTFGGGTKVEIK
notes: also called H2M11686N
B3: H4H12170P (antibody, human IgG4, V domains shown)
VH: QVQLVESGGGVVQPGRSLRLSCAASGFTFSGYGMHWVRQAPGKGLEWVALIWLDGSNDYYADSVKGRFTISRDNSKNTLYLQMNRLRAEDTAVYYCARDGPVAAIPDYWGQGTLVTVSS
VL: DIQMTQSPSTLSASVGDRVTITCRASQSISRWLAWYQLKPGKAPKLLIYKASSLESGVPSRFSGSGSGTDFTLTISSLQPDDFATYYCQQYNTYSYTFGQGTKLEIK
B4: H4H12183P2 (antibody, human IgG4, V domains shown)
VH: QVQLQESGPALVKPSQTLSLTCTVSGGSIIRGSTYWSWVRQFPGKGLEWIGYSYYSGTAYYNPSLESRATISVDTSKNQFSLNLKSVTAADTAVYYCTREIGVAGLFDIWGQGTLVTVSS
VL: not shown
B5: H4H12177P2 (antibody, human IgG4, V domains shown)
VH: EVQLVESGGGVVQRGESLRLSCSASDFIFKDYAMYWVRQIPGKGLEWISLISGDGDTTWYGDSVKGRFTISRDNNENSLFLQMNDLRTEDTAMYYCARDMGWNFFQLQYWGQGTLVTVSS
VL: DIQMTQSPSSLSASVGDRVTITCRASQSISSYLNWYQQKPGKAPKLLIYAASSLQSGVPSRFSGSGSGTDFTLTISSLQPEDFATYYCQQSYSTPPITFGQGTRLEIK

Columns and labels:
Human C5 [1] = molecular target: T1, Human C5 (human, UniProt P01031 19-1676); test: SPR, mAb captured by anti-hFc, 25C
T1 construct: The natural protein has a beta and an alpha chain; also called complement factor 5; complement component 5
Protocol: (§1) Equilibrium dissociation constants (KD values) for C5 binding to purified anti-C5 antibodies were determined using a real-time surface plasmon resonance biosensor assay on a Biacore T200 instrument. The Biacore sensor surface was derivatized by amine coupling with a monoclonal mouse anti-human Fc antibody (GE Healthcare, # BR-1008-39) to capture anti-C5 antibodies expressed with human Fc constant regions. Biacore binding studies were conducted in HBST running buffer (0.01M HEPES pH 7.4, 0.15M NaCl, 3 mM EDTA, 0.05% v/v Surfactant P20).
(§2) Human C5 was obtained from a commercial source (EMD). Other C5 reagents were expressed with a C-terminal myc-myc-hexahistidine tag (subsequently referred to as C5-mmh). […] Association of all the C5 reagents to each of the captured monoclonal antibodies was monitored for 3 minutes and their dissociation in HBST running buffer was monitored for 8 minutes. All the binding kinetics experiments were performed at either 25° C. or 37° C. Kinetic association (kₐ) and dissociation (kd) rate constants were determined by fitting the real-time sensorgrams to a 1:1 binding model using Scrubber 2.0c curve fitting software. Binding dissociation equilibrium constants (KD) and dissociative half-lives (t %) were calculated from the kinetic rate constants as: KD (M)=kd/kₐ and t_{1/2} (min)=In2/(60×kd)

monkey C5-mmh = molecular target: T2, monkey C5-mmh (monkey, UniProt P01031 19-1676 (human entry), limits assumed); test: SPR, mAb captured by anti-hFc, 25C
T2 construct: Expressed with a C-terminal myc-myc-hexahistidine tag
T2 chain: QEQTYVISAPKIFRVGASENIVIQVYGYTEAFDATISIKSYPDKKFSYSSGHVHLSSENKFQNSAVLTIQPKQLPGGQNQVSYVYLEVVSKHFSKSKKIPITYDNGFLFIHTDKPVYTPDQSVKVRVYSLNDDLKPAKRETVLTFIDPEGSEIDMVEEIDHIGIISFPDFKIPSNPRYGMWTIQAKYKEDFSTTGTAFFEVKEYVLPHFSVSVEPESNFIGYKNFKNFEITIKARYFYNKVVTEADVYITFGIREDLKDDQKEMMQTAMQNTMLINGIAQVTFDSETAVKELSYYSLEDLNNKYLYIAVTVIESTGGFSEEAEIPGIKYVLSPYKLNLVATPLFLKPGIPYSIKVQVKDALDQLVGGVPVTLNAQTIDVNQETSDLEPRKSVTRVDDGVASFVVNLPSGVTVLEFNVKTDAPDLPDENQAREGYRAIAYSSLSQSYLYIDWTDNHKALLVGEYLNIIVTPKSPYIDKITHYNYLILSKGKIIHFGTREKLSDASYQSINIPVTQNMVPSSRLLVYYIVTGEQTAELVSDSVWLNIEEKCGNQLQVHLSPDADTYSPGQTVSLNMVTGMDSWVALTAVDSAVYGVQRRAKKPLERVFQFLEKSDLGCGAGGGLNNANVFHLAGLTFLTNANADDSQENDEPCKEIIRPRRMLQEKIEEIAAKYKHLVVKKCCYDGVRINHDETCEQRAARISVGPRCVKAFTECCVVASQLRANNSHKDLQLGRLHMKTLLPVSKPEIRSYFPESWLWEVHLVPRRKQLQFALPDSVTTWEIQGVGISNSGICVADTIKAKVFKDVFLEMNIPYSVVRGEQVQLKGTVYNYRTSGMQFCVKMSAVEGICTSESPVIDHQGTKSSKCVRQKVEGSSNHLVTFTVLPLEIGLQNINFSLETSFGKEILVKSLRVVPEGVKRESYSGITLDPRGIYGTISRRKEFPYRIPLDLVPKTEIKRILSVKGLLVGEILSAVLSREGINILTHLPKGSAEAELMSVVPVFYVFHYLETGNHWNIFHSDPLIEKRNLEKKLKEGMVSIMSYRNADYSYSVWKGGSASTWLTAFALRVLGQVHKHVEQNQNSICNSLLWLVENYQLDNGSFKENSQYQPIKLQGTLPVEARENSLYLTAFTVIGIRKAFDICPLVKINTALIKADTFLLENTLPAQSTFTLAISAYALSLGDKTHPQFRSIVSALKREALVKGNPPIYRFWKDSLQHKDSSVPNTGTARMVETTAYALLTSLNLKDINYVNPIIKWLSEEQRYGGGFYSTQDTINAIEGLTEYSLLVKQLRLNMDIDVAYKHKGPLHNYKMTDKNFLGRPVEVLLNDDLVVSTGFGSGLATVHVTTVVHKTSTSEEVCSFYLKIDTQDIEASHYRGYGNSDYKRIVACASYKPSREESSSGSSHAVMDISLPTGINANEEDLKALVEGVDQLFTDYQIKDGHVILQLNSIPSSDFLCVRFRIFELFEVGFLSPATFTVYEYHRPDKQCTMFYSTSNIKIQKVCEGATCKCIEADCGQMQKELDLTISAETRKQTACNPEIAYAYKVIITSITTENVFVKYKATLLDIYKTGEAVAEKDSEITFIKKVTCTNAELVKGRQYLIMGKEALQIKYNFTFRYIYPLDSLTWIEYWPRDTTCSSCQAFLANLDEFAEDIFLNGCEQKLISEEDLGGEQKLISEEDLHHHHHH
Protocol: as §1, §2

Human C5 [2] = molecular target: T1, Human C5; test: SPR, mAb captured by anti-hFc, 37C
Protocol: as §1, §2

Binder	100 nM Human C5 Bound (RU) (Human C5 [1])	Kd (Human C5 [1])	koff (Human C5 [1])	kon (Human C5 [1])	t½ (Human C5 [1])	100 nM monkey C5-mmh Bound (RU) (monkey C5-mmh)	Kd (monkey C5-mmh)	koff (monkey C5-mmh)	kon (monkey C5-mmh)	t1/2 (monkey C5-mmh)	100 nM Human C5 Bound (RU) (Human C5 [2])	Kd (Human C5 [2])	koff (Human C5 [2])	kon (Human C5 [2])	t½ (Human C5 [2])
B1	131 RU	375 pM	0.000184 s⁻¹	489000 M⁻¹ s⁻¹	63 min	94 RU	11100 pM	0.00266 s⁻¹	239000 M⁻¹ s⁻¹	4 min	157 RU	875 pM	0.000474 s⁻¹	542000 M⁻¹ s⁻¹	24 min
B2	341 RU	150 pM	3.31e-05 s⁻¹	220000 M⁻¹ s⁻¹	349 min	247 RU	3110 pM	0.000489 s⁻¹	157000 M⁻¹ s⁻¹	24 min	406 RU	469 pM	0.000156 s⁻¹	333000 M⁻¹ s⁻¹	74 min
B3	119 RU	129 pM	6.79e-05 s⁻¹	525000 M⁻¹ s⁻¹	170 min	92 RU	199 pM	5.21e-05 s⁻¹	262000 M⁻¹ s⁻¹	222 min	55 RU	1400 pM	0.000415 s⁻¹	297000 M⁻¹ s⁻¹	28 min
B4	50 RU	163 pM	2.7e-05 s⁻¹	166000 M⁻¹ s⁻¹	427 min	23 RU	10100 pM	0.000494 s⁻¹	48800 M⁻¹ s⁻¹	23 min	30 RU	5810 pM	0.00025 s⁻¹	43000 M⁻¹ s⁻¹	46 min
B5	60 RU	959 pM	6.29e-05 s⁻¹	65600 M⁻¹ s⁻¹	184 min	32 RU	21500 pM	0.000992 s⁻¹	46200 M⁻¹ s⁻¹	12 min	37 RU	13100 pM	0.000578 s⁻¹	44200 M⁻¹ s⁻¹	20 min
